Drawing on US20040208877A1, this text covers Median (Geo mean), Median (Geo mean) of IgG Y1-PE binding and Percent Inhibition for one substance.

The target in experiment [1] is PSGL-1 (P-Selectin Glycoprotein Ligand-1) (human) (UniProt Q14242). The experiment in a line: FACS, PE-labeled KPL-1 on ML2 cells.
The target is the same in experiment [2]. The experiment in a line: FACS competition on ML2 cells, 200 ng KPL-1, competitor IgG Y1-PE.

Sequence of UniProt Q14242 (Q14242 42-412): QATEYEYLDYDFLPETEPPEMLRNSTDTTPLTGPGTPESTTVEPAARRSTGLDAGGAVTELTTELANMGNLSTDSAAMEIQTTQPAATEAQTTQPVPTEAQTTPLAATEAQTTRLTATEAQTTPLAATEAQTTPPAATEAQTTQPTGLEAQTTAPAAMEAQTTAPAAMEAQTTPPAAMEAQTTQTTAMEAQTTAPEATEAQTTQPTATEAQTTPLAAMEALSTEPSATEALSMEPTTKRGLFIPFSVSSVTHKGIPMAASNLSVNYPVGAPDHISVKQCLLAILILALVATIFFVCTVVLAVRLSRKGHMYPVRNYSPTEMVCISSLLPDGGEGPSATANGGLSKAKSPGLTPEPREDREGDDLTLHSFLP

In the case of “KPL-1 (commercially available murine monoclonal antibody against PSGL1)”, in experiment [1], the Median (Geo mean) worked out at 700 geo mean. Also, in experiment [2], the Median (Geo mean) of IgG Y1-PE binding stood at 2 geo mean and the Percent Inhibition was 100%.
